The chains are these.
B1: VH:VL chains; a variant is named by its letters at X, in order (parent)
chain 1: QVQLVQSGAEVKKPGASVKVSCKASGYTFTDYXMHWVRQAPGQGLEWMGXVNPNXXXTTYNQKFEGRVTMTTDTSTSTAYMELRSLRSDDTAVYYCARXNXLDXWGQGTTVTVSS
chain 2: DIQMTQSPSSLSASVGDRVTITCSVSSSVSSIYLHWYQQKPGKAPKLLIYSTSNLASGVPSRFSGSGSGTDFTLTISSLQPEDFATYYCQVYSGYPLTFGGGTKVEIK

Data on 118 variants can be found in the emibetuzumab library of Makowski et al. (2022).

This data set covers variants of B1. Put plainly: yeast display scFab, FACS + sequencing. The gist of the method: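 The non-specific binding call was based on sorted and sequenced yeast displaying a heavy-chain CDR mutant scFab library. Labelling used anti-Myc with biotinylated ovalbumin (260 μg/mL in PBSB, 3 h, room temperature) or soluble membrane proteins (130 μg/mL, 20 min on ice), and FACS collected the top 25% and bottom 10% of binders in two replicates. Positive meant present in ≥3 of 4 pooled positive samples and in no negatives, and negative meant the converse.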
As to VAGGDALD, the non-specific binding call is recorded as “no binding”.

Take YREKGAGD: the non-specific binding call is given as “binds”.

Turning to VRERGSAD, the non-specific binding call is listed as “binds”.

On to DEGGTDVY, for which the non-specific binding call is reported as “no binding”.

As for VKKEDDVV, the non-specific binding call is “no binding”.

YARADSSD: the non-specific binding call is reported as “no binding”.

On to FAAKTAAA, for which the non-specific binding call is “binds”.

In the case of VEGGGAAA, the non-specific binding call is given as “no binding”.

Take YRRRGFWY: the non-specific binding call is listed as “binds”.

As to DAATADSS, the non-specific binding call was “no binding”.

Turning to YTRGADVV, the non-specific binding call is “no binding”.

Consider DATGGDGA, for which the non-specific binding call is reported as “no binding”.

As for YREKGSSA, the non-specific binding call is given as “binds”.

As for SRGRGFAA, the non-specific binding call is given as “binds”.

As to SEARSSAD, the non-specific binding call is “no binding”.

With FRRGDALD, the non-specific binding call is “binds”.

Regarding VKGTDAWY, the non-specific binding call was “no binding”.

Turning to YKTGGALY, the non-specific binding call is recorded as “no binding”.

On to YAARASGF, for which the non-specific binding call is “binds”.

Take YRARGSLA: the non-specific binding call is given as “binds”.

On to YRERGSAV, for which the non-specific binding call was “binds”.

For the variant YRARGAAY, the non-specific binding call is on record as “binds”.

As for YRGRDDWF, the non-specific binding call is listed as “no binding”.

Turning to FRERGSAD, the non-specific binding call was “binds”.

As to ARGKASSY, the non-specific binding call was “no binding”.

For DEARSDGA, the non-specific binding call is on record as “no binding”.

Take VAREDDWA: the non-specific binding call is given as “no binding”.

For VKGRAAVA, the non-specific binding call is given as “no binding”.

As for FRAGSAVV, the non-specific binding call is “binds”.

With FRTKGSGD, the non-specific binding call is “binds”.

Take AEAGDAVV: the non-specific binding call is recorded as “no binding”.

As for VKEGGDGA, the non-specific binding call was “no binding”.

Consider VAEKDDGS, for which the non-specific binding call is “no binding”.

Take FRGAGSVD: the non-specific binding call is given as “binds”.

For the variant DTGTGDVA, the non-specific binding call is “no binding”.

As to FAGRDVGV, the non-specific binding call is reported as “binds”.

Turning to YRGADFGF, the non-specific binding call is listed as “binds”.

Consider DRGRDDGS, for which the non-specific binding call is given as “no binding”.

As for VKGRSDSA, the non-specific binding call is “no binding”.

As to FREGGAVS, the non-specific binding call is given as “binds”.

For YRGRDSSS, the non-specific binding call is “binds”.

For STAGSASD, the non-specific binding call was “no binding”.

Turning to ATGRADGV, the non-specific binding call is recorded as “no binding”.

Turning to SEEASSSA, the non-specific binding call is “no binding”.

Turning to DGGGGYWF, the non-specific binding call is “binds”.

Turning to YKGKGSSS, the non-specific binding call was “binds”.

Take FKKGSSWD: the non-specific binding call is “binds”.

Turning to YKGRGSAY, the non-specific binding call is recorded as “binds”.

Regarding YKGKGVGV, the non-specific binding call was “binds”.

In the case of VGGGGDGS, the non-specific binding call is given as “no binding”.

On to SEARSFGV, for which the non-specific binding call is listed as “no binding”.

Regarding FRGRGSLS, the non-specific binding call is reported as “binds”.

On to FRGRGSLV, for which the non-specific binding call is on record as “binds”.

As to VEGEDAGA, the non-specific binding call is “no binding”.

As to FRRGSSAA, the non-specific binding call is recorded as “binds”.

As to VRGKGAWA, the non-specific binding call is “binds”.

YRKRGAAD: the non-specific binding call is listed as “binds”.

For VKRGSSGA, the non-specific binding call is recorded as “binds”.

On to YTGRGSGV, for which the non-specific binding call is “binds”.

Take DEGGTDLD: the non-specific binding call is “no binding”.

In the case of VRARGFVV, the non-specific binding call is recorded as “binds”.

VTEGGALA: the non-specific binding call is given as “no binding”.

With VKTGGSWA, the non-specific binding call is on record as “no binding”.

Turning to YKGGSSGV, the non-specific binding call is given as “binds”.

For YRARSSGA, the non-specific binding call is recorded as “binds”.

On to YTRGASWV, for which the non-specific binding call is “no binding”.

With VRRGSSVS, the non-specific binding call is reported as “binds”.

Take VGGTSDGA: the non-specific binding call is recorded as “no binding”.

For the variant YKTGGAGV, the non-specific binding call is “binds”.

Turning to FRGKDASA, the non-specific binding call was “no binding”.

On to DATTDSVD, for which the non-specific binding call was “no binding”.

For YKRGDASS, the non-specific binding call was “no binding”.

For YKRGSDGA, the non-specific binding call is recorded as “binds”.

In the case of VKTGGAWY, the non-specific binding call was “no binding”.

YRRRGVSA: the non-specific binding call is given as “binds”.

As for YRTGAAAD, the non-specific binding call is recorded as “binds”.

Turning to DRAGDSVD, the non-specific binding call is on record as “no binding”.

Turning to YRTADDWV, the non-specific binding call was “binds”.

In the case of YRRGGAGF, the non-specific binding call was “binds”.

As for YRARGDGV, the non-specific binding call was “no binding”.

As for SKTKSDGV, the non-specific binding call is reported as “no binding”.

In the case of VRRGSASD, the non-specific binding call is “binds”.

On to ARRGSAVS, for which the non-specific binding call is recorded as “binds”.

Regarding AAAGGSWS, the non-specific binding call is on record as “binds”.

Take DGGKNAGV: the non-specific binding call is “no binding”.

As for YRAESSGV, the non-specific binding call is recorded as “binds”.

On to FRARSSGF, for which the non-specific binding call is recorded as “binds”.

For the variant YAGTGVVD, the non-specific binding call is given as “binds”.

With DRTGDDVA, the non-specific binding call is recorded as “no binding”.

As for YRGEGAVS, the non-specific binding call is reported as “binds”.

On to DGGTNSSA, for which the non-specific binding call is listed as “no binding”.

On to FGATSVSF, for which the non-specific binding call was “binds”.

For the variant VRTEDALD, the non-specific binding call is on record as “no binding”.

For YRTAGAAD, the non-specific binding call is “binds”.

Turning to VKGRSFLV, the non-specific binding call is “binds”.

Consider YAEESDGS, for which the non-specific binding call is reported as “no binding”.

For the variant VRAGDYLV, the non-specific binding call is “no binding”.

YKGRGFAY: the non-specific binding call was “binds”.

Regarding YERRSSAF, the non-specific binding call is “no binding”.

Consider YRGAASSD, for which the non-specific binding call was “binds”.

Regarding SRARDFGY, the non-specific binding call is “no binding”.

Take YRAGAASD: the non-specific binding call is given as “binds”.

On to VRTGDDGV, for which the non-specific binding call is “no binding”.

As for YRGRSSSV, the non-specific binding call is “binds”.

As for YRGESAWV, the non-specific binding call was “binds”.

Take DATGGALD: the non-specific binding call is reported as “no binding”.

Regarding FAGGGAGS, the non-specific binding call is given as “no binding”.

Consider DKGGSAVV, for which the non-specific binding call was “no binding”.

Consider YRGRDDGD, for which the non-specific binding call is recorded as “no binding”.

VEGRGDVF: the non-specific binding call is recorded as “no binding”.

For YRARGAWD, the non-specific binding call is “binds”.

As to SEEEGDWV, the non-specific binding call is given as “no binding”.

In the case of YRGRGFAY, the non-specific binding call was “binds”.

As for SKAKGSSD, the non-specific binding call is “binds”.

With YRGRSAWF, the non-specific binding call is reported as “binds”.

Regarding DARRGSGD, the non-specific binding call is “no binding”.

As to YTTRDDSD, the non-specific binding call was “no binding”.

Regarding YGGGGDVV, the non-specific binding call is recorded as “no binding”.
